These results are taken from US20240269278A1 (NANJING SHUNXIN PHARMACEUTICALS CO LTD OF CHIATAI TIANQING …, published 2024).

Test [1] deals with T1, human CD47 protein, His Tag (ACRObiosystems, Cat. No. CD7-H5227) (human, UniProt Q08722 19-139).
T1 construct: Bought protein; also called hCD47-His Tag protein; not shown: His tag
Nature of the test: Biacore SPR, antibody captured on CM5 chip, CD47-His protein, 25 C. The procedure:
(§1) The equilibrium dissociation constants KD (in unit M) were obtained by measuring the binding kinetics of the human CD47 protein (human CD47 protein, His Tag; ACRObiosystems, Cat. No. CD7-H5227) and cynomolgus monkey CD47 protein (cynomolgus/rhesus macaque CD47 protein, His Tag; ACRObiosystems, Cat. No. CD7-C52H1) to anti-CD47 antibodies (chimeric or humanized) using Biacore. The Biacore analysis was performed at 25° C. and data were recorded at a rate of 1 Hz.
(§2) At the beginning of each cycle, the diluted test antibody (1.5 μg/mL) was injected onto the experimental flowcell and maintained for 1 min to be captured.

Test [2] has as its target T2, cynomolgus/rhesus macaque CD47 protein, His Tag (ACRObiosystems, Cat. No. CD7-C52H1) (cynomolgus monkey, UniProt A0A2K5X523 19-139).
T2 construct: Bought protein; also called Cynomolgus monkey CD47 protein; not shown: His tag
Described as above. The procedure:
as §1, §2

T1 sequence (Q08722 19-139 limits assumed): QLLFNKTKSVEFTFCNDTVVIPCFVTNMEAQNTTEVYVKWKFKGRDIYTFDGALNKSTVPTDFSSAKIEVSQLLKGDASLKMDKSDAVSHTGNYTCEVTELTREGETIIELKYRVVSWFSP

B1: hz16E5-1.2 (antibody, human IgG4 S228P, kappa)
heavy: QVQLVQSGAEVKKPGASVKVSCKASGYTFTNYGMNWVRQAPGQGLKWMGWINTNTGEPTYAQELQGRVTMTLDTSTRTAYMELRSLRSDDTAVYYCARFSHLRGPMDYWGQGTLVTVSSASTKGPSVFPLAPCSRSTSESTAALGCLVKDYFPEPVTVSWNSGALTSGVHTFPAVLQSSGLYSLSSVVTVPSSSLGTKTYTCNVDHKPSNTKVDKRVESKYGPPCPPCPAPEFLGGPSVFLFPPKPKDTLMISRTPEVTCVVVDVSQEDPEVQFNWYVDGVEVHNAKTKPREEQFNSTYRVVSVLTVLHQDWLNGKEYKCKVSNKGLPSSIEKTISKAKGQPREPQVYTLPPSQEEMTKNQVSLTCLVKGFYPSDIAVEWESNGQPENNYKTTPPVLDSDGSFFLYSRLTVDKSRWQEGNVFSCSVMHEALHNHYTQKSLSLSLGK
light: DIQMTQSPSSLSASVGDRVTITCRSSQSLVHSNGYTYLHWYQQKPGKAPKLLIYKVSNRFSGVPSRFSGSGSGTDFTLTISSLQPEDFATYYCSQSTHVPPTFGQGTKLEIKRTVAAPSVFIFPPSDEQLKSGTASVVCLLNNFYPREAKVQWKVDNALQSGNSQESVTEQDSKDSTYSLSSTLTLSKADYEKHKVYACEVTHQGLSSPVTKSFNRGEC
notes: Humanized 16E5, full-length heavy and light chains, made in CHO cells
In general, Kd refers to the equilibrium constant for the complex coming apart. A higher Kd goes with lower affinity. B1: the Kd in test [1] is 9.31 nM; in test [2] it was 2.26 nM.

B2: hz16E5-3.1 (antibody, human IgG4 S228P, kappa)
heavy: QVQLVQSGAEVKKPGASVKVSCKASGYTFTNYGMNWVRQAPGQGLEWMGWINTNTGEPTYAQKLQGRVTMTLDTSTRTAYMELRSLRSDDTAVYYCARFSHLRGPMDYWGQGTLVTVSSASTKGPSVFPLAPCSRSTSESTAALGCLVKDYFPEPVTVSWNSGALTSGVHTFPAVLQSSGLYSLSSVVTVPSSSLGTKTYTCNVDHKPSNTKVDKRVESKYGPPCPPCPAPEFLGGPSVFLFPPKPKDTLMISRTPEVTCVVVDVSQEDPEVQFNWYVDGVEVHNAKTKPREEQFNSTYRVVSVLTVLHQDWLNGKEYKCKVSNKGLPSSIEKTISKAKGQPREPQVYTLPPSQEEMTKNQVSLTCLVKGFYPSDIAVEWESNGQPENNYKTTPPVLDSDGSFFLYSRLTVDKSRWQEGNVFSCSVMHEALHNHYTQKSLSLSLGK
light: DAQMTQSPSSLSASVGDRVTITCRSSQSLVHSNGYTYLHWYQQKPGKAPKLLIYKVSNRFSGVPSRFSGSGSGTDFTLTISSLQPEDFATYYCSQSTHVPPTFGQGTKLEIKRTVAAPSVFIFPPSDEQLKSGTASVVCLLNNFYPREAKVQWKVDNALQSGNSQESVTEQDSKDSTYSLSSTLTLSKADYEKHKVYACEVTHQGLSSPVTKSFNRGEC
notes: as for B1
B2: the values for the Kd in test [1] and in test [2] were 6.28 nM and 3.28 nM, respectively.

B3: hz16E5-1.3 (antibody, human IgG4 S228P, kappa)
heavy: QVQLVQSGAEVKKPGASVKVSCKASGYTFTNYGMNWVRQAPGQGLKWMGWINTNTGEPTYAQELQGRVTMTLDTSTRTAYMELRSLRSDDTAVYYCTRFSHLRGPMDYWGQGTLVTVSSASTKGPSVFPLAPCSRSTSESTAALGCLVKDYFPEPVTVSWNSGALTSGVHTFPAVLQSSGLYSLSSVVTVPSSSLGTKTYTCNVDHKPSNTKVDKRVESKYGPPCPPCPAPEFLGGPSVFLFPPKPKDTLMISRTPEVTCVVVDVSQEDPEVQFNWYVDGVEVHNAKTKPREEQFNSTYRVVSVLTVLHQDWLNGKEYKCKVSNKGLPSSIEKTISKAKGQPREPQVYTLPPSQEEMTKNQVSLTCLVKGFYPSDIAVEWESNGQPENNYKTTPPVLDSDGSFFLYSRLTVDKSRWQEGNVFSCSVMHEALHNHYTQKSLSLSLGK
light: DIQMTQSPSSLSASVGDRVTITCRSSQSLVHSNGYTYLHWYQQKPGKAPKLLIYKVSNRFSGVPSRFSGSGSGTDFTLTISSLQPEDFATYYCSQSTHVPPTFGQGTKLEIKRTVAAPSVFIFPPSDEQLKSGTASVVCLLNNFYPREAKVQWKVDNALQSGNSQESVTEQDSKDSTYSLSSTLTLSKADYEKHKVYACEVTHQGLSSPVTKSFNRGEC
notes: as for B1
Turning to B3, the Kd in test [1] is 15.3 nM; in test [2] it was 2.73 nM.

B4: hz16E5-1.1 (antibody, human IgG4 S228P, kappa)
heavy: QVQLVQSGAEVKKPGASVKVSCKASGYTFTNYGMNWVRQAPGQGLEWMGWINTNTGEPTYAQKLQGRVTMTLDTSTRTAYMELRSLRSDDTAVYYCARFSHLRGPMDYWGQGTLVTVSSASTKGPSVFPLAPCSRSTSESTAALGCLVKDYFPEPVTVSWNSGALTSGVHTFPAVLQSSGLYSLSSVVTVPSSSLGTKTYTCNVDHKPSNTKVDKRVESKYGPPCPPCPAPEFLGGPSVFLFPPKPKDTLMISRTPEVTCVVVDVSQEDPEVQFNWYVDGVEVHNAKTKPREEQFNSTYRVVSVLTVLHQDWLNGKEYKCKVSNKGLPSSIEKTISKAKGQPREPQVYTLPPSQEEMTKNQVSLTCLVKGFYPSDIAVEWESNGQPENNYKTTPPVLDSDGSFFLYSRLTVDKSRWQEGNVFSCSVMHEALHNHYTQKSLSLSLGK
light: DIQMTQSPSSLSASVGDRVTITCRSSQSLVHSNGYTYLHWYQQKPGKAPKLLIYKVSNRFSGVPSRFSGSGSGTDFTLTISSLQPEDFATYYCSQSTHVPPTFGQGTKLEIKRTVAAPSVFIFPPSDEQLKSGTASVVCLLNNFYPREAKVQWKVDNALQSGNSQESVTEQDSKDSTYSLSSTLTLSKADYEKHKVYACEVTHQGLSSPVTKSFNRGEC
notes: as for B1
With B4, the Kd in test [1] was determined as 18.9 nM; in test [2], 4.77 nM.

B5: Xi14A9 (antibody, human IgG4 S228P, kappa, V domains shown)
VH: EVQLQQSGAEVARPGASVKLSCTVSGFNIEDDYIEWVKQRPEQGLEWIGRIDPANDKTKYAPKFQDKATITGDTSSNTAYLQLSSLTSEDTAVYYCTRPGLRRYYSMDYWGQGTSVTVSS
VL: NIVLTQSPKSMSMSVGERVTLSCKASENVVSYVSWYQQKPEQSPKLLIYGASNRYTGVPDRFIGSGSSTDFTLIISSFQPEDLADYHCGQSYSYPLTFGAGTKLELKR
notes: Chimeric: mouse VH on human IgG4 (S228P, EU) constant region, mouse VL on human kappa constant region; made in CHO cells; also called chimeric version of 14A9
B5: the Kd in test [1] was determined as 2.35 nM; in test [2], 1.58 nM.

B6: hz3F10-3.1 (antibody, human IgG4 S228P, kappa, V domains shown)
VH: QVQLVQSGAEVKKPGSSVKVSCKASGYTFSRYWIEWVRQAPGQGLEWMGEFIPGSDTTNYAQKFQGRVTITADISTSTAYMELSSLRSEDTAVYYCARGGLRRMDYWGQGTLVTVSS
VL: DIQMTQSPSSLSASVGDRVTITCRASSSVSSTYLHWYQQKPGKAPKLLIYTTSTLASGVPSRFSGSGSGTSYTLTISSLQPEDFATYYCQQFSDSTWTFGQGTKLEIKR
notes: Humanized 3F10, full-length heavy and light chains, made in CHO cells
The molecule B6 yielded a dissociation constant (Kd) in test [1] of 1.53 nM.

B7: hz3F10-4.2 (antibody, human IgG4 S228P, kappa, V domains shown)
VH: QVQLVQSGAEVKKPGSSVKVSCKASGYTFSRYWIEWVRQAPGQGLEWMGEFIPGSDTTNYAQKFQGRVTITAEISTNTAYMELSSLRSEDTAVYYCARGGLRRMDYWGQGTLVTVSS
VL: DIQMTQSPSSLSASVGDRVTITCRASSSVSSTYLHWYQQKPGKAPKLLIYTTSTLASGVPSRFSGSGSGTSYTLTISSLQPEDFATYYCQQFSESTWTFGQGTKLEIKR
notes: as for B6
B7: the values for the Kd in test [1] and in test [2] were 1.34 nM and 1.86 nM, respectively.

B8: hz3F10-1.1 (antibody, human IgG4 S228P, kappa, V domains shown)
VH: QVQLVQSGAEVKKPGSSVKVSCKASGYTFSRYWIEWVRQAPGQGLEWMGEFIPGSDTTNYAQKFQGRVTITADISTSTAYMELSSLRSEDTAVYYCARGGLRRMDYWGQGTLVTVSS
VL: DIQMTQSPSSLSASVGDRVTITCRASSSVSSTYLHWYQQKPGKAPKLLIYTTSTLASGVPSRFSGSGSGTDFTLTISSLQPEDFATYYCQQFSDSTWTFGQGTKLEIKR
notes: as for B6
As to B8, the Kd in test [1] was 0.946 nM; in test [2] it was 1.31 nM.

B9: hz3F10-2.1 (antibody, human IgG4 S228P, kappa, V domains shown)
VH: QVQLVQSGAEVKKPGSSVKVSCKASGYTFSRYWIEWVRQAPGQGLEWMGEFIPGSDTTNYAQKFQGRVTITADISTSTAYMELSSLRSEDTAVYYCARGGLRRMDYWGQGTLVTVSS
VL: DIQMTQSPSSLSASVGDRVTITCRASSSVSSTYLHWYQQKPGKAPKLLIYTTSTLASGVPSRFSGSGSGTDFTLTISSLQPEDFATYYCQQFSESTWTFGQGTKLEIKR
notes: as for B6
B9: the values for the equilibrium dissociation constant (Kd) in test [1] and in test [2] were 0.836 nM and 1.17 nM, respectively.

B10: hz3F10-3.2 (antibody, human IgG4 S228P, kappa, V domains shown)
VH: QVQLVQSGAEVKKPGSSVKVSCKASGYTFSRYWIEWVRQAPGQGLEWMGEFIPGSDTTNYAQKFQGRVTITAEISTNTAYMELSSLRSEDTAVYYCARGGLRRMDYWGQGTLVTVSS
VL: DIQMTQSPSSLSASVGDRVTITCRASSSVSSTYLHWYQQKPGKAPKLLIYTTSTLASGVPSRFSGSGSGTSYTLTISSLQPEDFATYYCQQFSDSTWTFGQGTKLEIKR
notes: as for B6
Consider B10, for which the figures for the Kd in test [1] and in test [2] were 1.15 nM and 1.47 nM, respectively.

B11: hz3F10-6.1 (antibody, human IgG4 S228P, kappa, V domains shown)
VH: QVQLVQSGAEVKKPGSSVKVSCKASGYTFSRYWIEWVRQAPGQGLEWMGEFIPGSDTTNYAQKFQGRVTITADISTSTAYMELSSLRSEDTAVYYCARGGLRRMDYWGQGTLVTVSS
VL: DIQMTQSPSSLSASVGDRVTITCRASSSVSSTYLHWYQQKPGKAPKLWIYTTSTLASGVPSRFSGSGSGTSYTLTISSLQPEDFATYYCQQFSESTWTFGQGTKLEIKR
notes: as for B6
For B11, the Kd in test [1] is 0.592 nM; in test [2], 2.47 nM.

B12: hz3F10-2.2 (antibody, human IgG4 S228P, kappa, V domains shown)
VH: QVQLVQSGAEVKKPGSSVKVSCKASGYTFSRYWIEWVRQAPGQGLEWMGEFIPGSDTTNYAQKFQGRVTITAEISTNTAYMELSSLRSEDTAVYYCARGGLRRMDYWGQGTLVTVSS
VL: DIQMTQSPSSLSASVGDRVTITCRASSSVSSTYLHWYQQKPGKAPKLLIYTTSTLASGVPSRFSGSGSGTDFTLTISSLQPEDFATYYCQQFSESTWTFGQGTKLEIKR
notes: as for B6
For B12, the values for the Kd in test [1] and in test [2] were 0.779 nM and 1.14 nM, respectively.

B13: hz3F10-5.2 (antibody, human IgG4 S228P, kappa, V domains shown)
VH: QVQLVQSGAEVKKPGSSVKVSCKASGYTFSRYWIEWVRQAPGQGLEWMGEFIPGSDTTNYAQKFQGRVTITAEISTNTAYMELSSLRSEDTAVYYCARGGLRRMDYWGQGTLVTVSS
VL: DIQMTQSPSSLSASVGDRVTITCRASSSVSSTYLHWYQQKPGKAPKLWIYTTSTLASGVPSRFSGSGSGTSYTLTISSLQPEDFATYYCQQFSDSTWTFGQGTKLEIKR
notes: as for B6
Turning to B13, the dissociation constant (Kd) was 0.896 nM in test [1] and 1.4 nM in test [2].

B14: hz3F10-4.1 (antibody, human IgG4 S228P, kappa, V domains shown)
VH: QVQLVQSGAEVKKPGSSVKVSCKASGYTFSRYWIEWVRQAPGQGLEWMGEFIPGSDTTNYAQKFQGRVTITADISTSTAYMELSSLRSEDTAVYYCARGGLRRMDYWGQGTLVTVSS
VL: DIQMTQSPSSLSASVGDRVTITCRASSSVSSTYLHWYQQKPGKAPKLLIYTTSTLASGVPSRFSGSGSGTSYTLTISSLQPEDFATYYCQQFSESTWTFGQGTKLEIKR
notes: as for B6
As for B14, the figures for the Kd in test [1] and in test [2] were 1.42 nM and 1.62 nM, respectively.

B15: hz3F10-6.2 (antibody, human IgG4 S228P, kappa, V domains shown)
VH: QVQLVQSGAEVKKPGSSVKVSCKASGYTFSRYWIEWVRQAPGQGLEWMGEFIPGSDTTNYAQKFQGRVTITAEISTNTAYMELSSLRSEDTAVYYCARGGLRRMDYWGQGTLVTVSS
VL: DIQMTQSPSSLSASVGDRVTITCRASSSVSSTYLHWYQQKPGKAPKLWIYTTSTLASGVPSRFSGSGSGTSYTLTISSLQPEDFATYYCQQFSESTWTFGQGTKLEIKR
notes: as for B6
Consider B15, for which the Kd in test [1] is 0.765 nM; in test [2], 1.15 nM.

B16: hz3F10-1.2 (antibody, human IgG4 S228P, kappa, V domains shown)
VH: QVQLVQSGAEVKKPGSSVKVSCKASGYTFSRYWIEWVRQAPGQGLEWMGEFIPGSDTTNYAQKFQGRVTITAEISTNTAYMELSSLRSEDTAVYYCARGGLRRMDYWGQGTLVTVSS
VL: DIQMTQSPSSLSASVGDRVTITCRASSSVSSTYLHWYQQKPGKAPKLLIYTTSTLASGVPSRFSGSGSGTDFTLTISSLQPEDFATYYCQQFSDSTWTFGQGTKLEIKR
notes: as for B6
As for B16, the Kd in test [1] was determined as 0.904 nM; in test [2], 1.33 nM.

B17: hz3F10-5.1 (antibody, human IgG4 S228P, kappa, V domains shown)
VH: QVQLVQSGAEVKKPGSSVKVSCKASGYTFSRYWIEWVRQAPGQGLEWMGEFIPGSDTTNYAQKFQGRVTITADISTSTAYMELSSLRSEDTAVYYCARGGLRRMDYWGQGTLVTVSS
VL: DIQMTQSPSSLSASVGDRVTITCRASSSVSSTYLHWYQQKPGKAPKLWIYTTSTLASGVPSRFSGSGSGTSYTLTISSLQPEDFATYYCQQFSDSTWTFGQGTKLEIKR
notes: as for B6
B17: the Kd in test [1] was found to be 0.96 nM; in test [2], 1.3 nM.

B18: Xi2H8 (antibody, human IgG4 S228P, kappa, V domains shown)
VH: QVQLKESGPGLVAPSQSLSITCTVSGFSLTNYGVHWVRQPPGKGLEWLGIIWAGGSTNYNSALMSRLSISKDNSKSQVFLKMNSLQTDDTAMYYCARDDYASMDYWGQGTSVTVSS
VL: DAFMTQTPLSLPVSLGDQASISCRSSQSLVHSNGNTYLHWYLQKPGQSPKLLIYKVSNRFSGVPDRFSGSGSGTDFTLKISRVEAEDLGVYFCSQSTHVPYTLGGGTKLEIKR
notes: Chimeric: mouse VH on human IgG4 (S228P, EU) constant region, mouse VL on human kappa constant region; made in CHO cells; also called chimeric version of 2H8
As to B18, the Kd in test [1] was 0.35 nM; in test [2], 1.25 nM.

B19: Xi2B2 (antibody, human IgG4 S228P, kappa, V domains shown)
VH: EVMLVESGGGLVQPGGSLKLSCAASGFTFSNYYMSWVRQTPEKRLEWVAYISSGGGSTYYPDSVKGRFTISRDNAKNTLYLQMSSLKSEDTAMYYCAWFAYWGQGTLVTVSA
VL: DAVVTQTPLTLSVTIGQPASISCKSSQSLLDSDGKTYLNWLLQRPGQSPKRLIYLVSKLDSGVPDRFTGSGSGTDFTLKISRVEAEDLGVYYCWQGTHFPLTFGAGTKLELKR
notes: Chimeric: mouse VH on human IgG4 (S228P, EU) constant region, mouse VL on human kappa constant region; made in CHO cells; also called chimeric version of 2B2
For B19, the Kd came to 7.48 nM in test [1] and 1.2 nM in test [2].
